How the values were obtained:
[1] = tested on: Uke-1 cells; experiment: ADCC activity in vitro (Calcein release, NK3.3 effector cells); format: cell-based, human; conditions: effector to target ratio 20 to 1
Method: In brief, Uke-1 cells were stained with Calcein acetoxy-methyl ester (Calcein-AM; Sigma-Aldrich catalog #17783-5MG, St. Louis, Mo.), washed twice, pipetted into a 96-well microtiterplate (96 well, U-bottomed, clear plastic; Corning Costar, catalog #650 160, Tewksbury, Mass.) at a concentration of 5000 cells per well and pre-incubated for 10 min with a serial dilution of the above mentioned antibodies and proteins (from 50,000 to 0.003 μg per ml) before adding the effector NK3.3 cells for 1 hour in an effector to target ratio of 20 to 1. In order to calculate the antibody specific lysis of the target cells, a parallel incubation of target cells only without antibody or effector cells served as a baseline and negative control, whereas the positive control or maximal lysis or hundred percent specific lysis was determined by lysis of target cells only with a 1% Triton-X 100 solution. […] Following a co-incubation of target and effector cells, the microtiterplate was centrifuged and an aliquot of the supernatant fluid was transferred to another microtiterplate (96 well, flat-bottomed, black with clear bottom; Corning Costar, catalog #3904, Tewksbury, Mass.) and the concentration of free Calcein in solution was determined with a fluorescence counter (Victor 3® multilabel counter, Perkin Elmer, Waltham, Mass.).

[2] = tested on: GIST T1 subcutaneous tumor xenograft; experiment: Efficacy of murine 9P3 ADCs, MCC-DM1 vs SPDB-DM4; format: in vivo, mouse; conditions: single i.v. dose 10 mg/kg, unconjugated antibody
[3] = molecular target: T1, cKIT extra-cellular domain (SEQ ID NO:160) (Homo sapiens, UniProt P10721); experiment: Epitope mapping by deuterium exchange mass spectrometry (HDx-MS); format: binding; conditions: Region 1 residues 109-119, Region 2 residues 185-196
T1 construct: LENGTH: 503 amino acids; made in house; host or cells: HEK293 derived cell lines (293FS), transient transfection
Method: In these experiments, the deuterium uptake of cKIT extra-cellular domain (SEQ ID NO:160, see below) was measured in the absence and presence of a therapeutic mAb, 9P3. Regions in cKIT that show a decrease in deuterium uptake upon binding of the antibody are likely to be involved in the epitope; however, due to the nature of the measurement it is also possible to detect changes remote from the direct binding site (allosteric effects). Usually, the regions that have the greatest amount of protection are involved in direct binding although this may not always be the case. In order to delineate direct binding events from allosteric effects orthogonal measurements (e. g. X-ray crystallography, alanine mutagenesis) are necessary.
The cKIT epitope mapping experiments are performed on a Waters Synapt® G2 HDx-MS platform, which includes LEAP® robot system, nanoACQUITY® UPLC System, and Synapt® G2 mass spectrometer. In this method, triplicate control experiments are carried out as follows. 300 pmol (1.4 mg/ml) of cKIT antigen is diluted into 110 ul of 95% deuterated PBS buffer (pH 7.4) and incubates at room temperature on a bench rotator for 25 minutes (% D=85.5%). Deuterium exchange is quenched by 1:1 dilution with cold quench buffer (6M Urea and 1M TCEP pH=2.5) on ice for 5 min. […] The sample is analyzed using the same on-line pepsin digestion/LC-MS setup as the control experiment.

T1 sequence (P10721 with tags, fused parts or gaps isoform P10721-2): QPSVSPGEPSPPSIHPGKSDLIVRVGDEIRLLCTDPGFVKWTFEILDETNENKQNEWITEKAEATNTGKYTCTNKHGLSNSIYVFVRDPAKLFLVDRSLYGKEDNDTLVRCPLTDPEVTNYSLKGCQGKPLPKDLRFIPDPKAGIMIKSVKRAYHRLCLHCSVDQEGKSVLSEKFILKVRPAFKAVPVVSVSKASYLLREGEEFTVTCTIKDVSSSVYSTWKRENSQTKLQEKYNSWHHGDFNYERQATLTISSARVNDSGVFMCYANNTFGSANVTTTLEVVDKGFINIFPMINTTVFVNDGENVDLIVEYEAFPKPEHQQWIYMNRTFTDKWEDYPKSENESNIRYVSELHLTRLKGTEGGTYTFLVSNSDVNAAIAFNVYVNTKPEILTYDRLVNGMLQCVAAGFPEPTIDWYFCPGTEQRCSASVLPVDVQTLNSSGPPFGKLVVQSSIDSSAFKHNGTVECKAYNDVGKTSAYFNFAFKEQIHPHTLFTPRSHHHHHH

MabCampath [reference compound] was tested, and the ADCC [1] was “mediated ADCC killing of the target cells”.

B1: 9P3: hybridoma derived anti-cKIT antibody; VH SEQ ID NO.9, VL SEQ ID NO.18 (antibody, V domains shown)
VH: EVRLVESEGGLVQPRSSMKLSCTASGFTFSDYYMAWVRQVPEKGLEWVANINYDGSSTYYLDSLKSRFIISRDNAKNILYLQMSSLKSEDTATYYCARGDYYGTTYWYFDVWGTGTTVTVSS
VL: DIQMTQTTSSLSASLGDRVTISCRASQDISNYLNWYQQKPDGTVKLLIYYTSRLQSGVPSRFSGSGSGTDYSLTISNLEQEDIATYFCQQGKKLWSFGGGTKLEIKR
For B1, the antitumor efficacy [2] was “Neither the control non-specific IgG1 ADCs nor the unconjugated 9P3 were efficacious” and the “epitope (regions protected from deuterium exchange)” value [3] was “discontinuous epitope that is remote from the SCF binding sites”.

Reference: patent US10117953B2, “Antibody drug conjugates” (Novartis AG, priority 2013, dated 2018)
